In US20030059862A1 (Human Genome Sciences, published 2003):
Blank lines part the entries; values can stand above or below the binder they belong to.

B4: APRIL (Tumor Necrosis Factor Delta), human (ligand)
chain: AVLTQKQKKQHSVLHLVPINATSKDDSDVTEVMWQPALRRGRGLQAQGYGVRIQDAGVYLLYSQVLFQDVTFTMGQVVSREGQGRQETLFRCIRSMPSHPDRAYNSCYSAGVFHLHQGDILSVIIPRARAKLNLSPHGTFLGFVKL
notes: Soluble purified APRIL and FLAG-tagged APRIL were used in the selections; also called TNF-delta; human APRIL

Tests used:
biotinylated APRIL [1] = target: T1, biotinylated APRIL (Homo sapiens (Human), UniProt O75888 105-250, biotinylated using NHS-biotin at a molar ratio of 20:1 biotin:APRIL); assay: scFv inhibition of bio-APRIL (5 ng/ml) binding to coated BCMA fusion protein, streptavidin-DELFIA; partial inhibition; unit cell reads 'nM (3)'
T1 construct: also called bio-APRIL
T1 sequence: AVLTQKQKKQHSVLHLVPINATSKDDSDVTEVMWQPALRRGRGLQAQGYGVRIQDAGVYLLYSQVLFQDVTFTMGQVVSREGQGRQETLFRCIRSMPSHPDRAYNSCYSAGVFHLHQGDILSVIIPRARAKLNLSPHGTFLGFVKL
Description: (§1) APRIL binds to BCMA with higher affinity than its binds to TACI so, inhibition of biotinylated APRIL (bio-APRIL) binding to BCMA can be used to screen selection outputs as periplasmic extracts for neutralizers and then assess potency of the positives as purified scFvs. To perform this assay, each well of a black 96 well flat-bottomed plate (Costar) was coated with 1.25 ng BCMA fusion protein overnight at 4° C. The wells were blocked with 3% milk in PBS for an hour at room temperature. ScFv were then added in the presence of 5 ng/ml biotinylated APRIL for 90 minutes at room temperature. Binding of biotinylated APRIL was detected via streptavidin Delfia (Wallac) added at a 1:1000 dilution in Delfia assay buffer (Wallac). After an hour at room temperature this was read on a Wallac 1420 workstation at 620 nm.

biotinylated APRIL [2] = target: T1, biotinylated APRIL; assay: scFv inhibition of bio-APRIL (50 ng/ml) binding to coated TACI fusion protein, streptavidin-DELFIA; partial inhibition; unit cell reads 'nM (1)'
Description: as §1
(§2) An assay similar to that described above can also be used to test if anti-APRIL antibodies of the invention are able to inhibit binding of bio-APRIL to TACI. In this case, the plate was coated with 2.5 ng TACI fusion protein per well and scFv were added in the presence of 50 ng/ml biotinylated APRIL instead of 5 ng/ml. Otherwise, the method was identical to that for the BCMA:bio-APRIL assay.

[3] = target: B4; assay: Title of Table 1; scFv identified by phage display selection and phage ELISA (Example 1)
BCMA = target: T2, BCMA (Homo sapiens (Human), UniProt Q02223 1-48, limits assumed); assay: Specificity phage ELISA (scFv on phage, anti-M13-HRP, A450)
T2 chain: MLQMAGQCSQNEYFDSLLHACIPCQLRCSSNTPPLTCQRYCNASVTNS
Description: (§3) Flexible 96-well plates (Falcon) were coated overnight at 4° C. with each antigen (1 μg/ml). All antigens were coated in PBS. After coating, the solutions were removed from the wells, and the plates were blocked for 1 hour at room temperature in MPBS. The plates were washed 3 times with PBS and then 50 μl of pre-blocked phage was added to each well. The plates were incubated at room temperature for 1 hour and then washed with 3 changes of PBST followed by 3 changes of PBS.
(§4) To each well, 50 μl of an anti-M13-HRP conjugate (Pharmacia) at a 1 in 5000 dilution in MPBS was added and the plates incubated at room temperature for 1 hour. Each plate was washed three times with PBST followed by three times with PBS.
(§5) Fifty μl of TMB substrate was then added to each well, and incubated at room temperature for 30 minutes or until color development. The reaction was stopped by the addition of 25 μl of 0.5 M H₂SO₄. The signal generated was measured by reading the absorbance at 450 nm (A₄₅₀) using a microtitre plate reader (Bio-Rad 3550).

TACI = target: T3, TACI (Homo sapiens (Human), UniProt O14836 1-154, limits assumed); assay: as above
T3 sequence: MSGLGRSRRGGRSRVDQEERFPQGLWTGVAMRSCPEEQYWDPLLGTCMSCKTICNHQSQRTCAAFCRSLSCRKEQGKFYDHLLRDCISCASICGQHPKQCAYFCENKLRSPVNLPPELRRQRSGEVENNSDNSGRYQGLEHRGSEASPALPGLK
Description: as §3, §4, §5

BLyS = target: T4, BLyS (Homo sapiens (Human), UniProt Q9Y275 134-285); assay: as above
T4 construct: also called Neutrokine-alpha
Description: as §3, §4, §5

LIGHT = target: T5, LIGHT (Homo sapiens (Human), UniProt O43557 83-240, limits assumed); assay: as above
T5 chain: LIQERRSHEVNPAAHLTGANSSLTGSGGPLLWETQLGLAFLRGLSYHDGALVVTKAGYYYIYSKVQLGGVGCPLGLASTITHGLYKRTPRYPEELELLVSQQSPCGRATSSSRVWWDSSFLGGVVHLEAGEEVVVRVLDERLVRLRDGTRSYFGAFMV
Description: as §3, §4, §5

TNF-α = target: T6, TNF-α (Homo sapiens (Human), UniProt P01375 77-233); assay: as above
T6 construct: also called TNF-alpha
Description: as §3, §4, §5

BSA = target: T7, BSA (UniProt P02769 25-607); assay: as above
T7 construct: Unrelated control antigen coated at 1 µg/ml in the phage ELISAs
Description: as §3, §4, §5

biotinylated APRIL [4] = target: T1, biotinylated APRIL; assay: scFv inhibition of bio-APRIL (5 ng/ml) binding to coated BCMA fusion protein, streptavidin-DELFIA
Description: as §1

biotinylated APRIL [5] = target: T1, biotinylated APRIL; assay: scFv inhibition of bio-APRIL (50 ng/ml) binding to coated TACI fusion protein, streptavidin-DELFIA
Description: as §1, §2

biotinylated APRIL [6] = target: T1, biotinylated APRIL; assay: receptor binding inhibition assay: scFv titrated with bio-APRIL (5 ng/ml); blocked binding of bio-APRIL to plate-coated BCMA fusion protein; streptavidin Delfia, fluorescence counts
Description: as §1

biotinylated APRIL [7] = target: T1, biotinylated APRIL; assay: receptor binding inhibition assay: scFv titrated with bio-APRIL (50 ng/ml); blocked binding of bio-APRIL to plate-coated TACI fusion protein; streptavidin Delfia, fluorescence counts
Description: as §1, §2

BCMA fusion protein [8] = target: T8, BCMA fusion protein (Homo sapiens (Human), UniProt Q02223 1-48); assay: Unlabelled APRIL titrated against 5 ng/ml bio-APRIL for binding to coated BCMA fusion protein, streptavidin-DELFIA
T8 construct: also called immobilized receptor
T8 chain: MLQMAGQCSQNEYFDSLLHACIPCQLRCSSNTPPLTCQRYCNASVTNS
Description: as §1

TACI fusion protein [9] = target: T9, TACI fusion protein (Homo sapiens (Human), UniProt O14836 1-154); assay: Unlabelled APRIL titrated against 50 ng/ml bio-APRIL for binding to coated TACI fusion protein, streptavidin-DELFIA; inhibition was only partial
T9 construct: also called immobilized receptor
T9 sequence: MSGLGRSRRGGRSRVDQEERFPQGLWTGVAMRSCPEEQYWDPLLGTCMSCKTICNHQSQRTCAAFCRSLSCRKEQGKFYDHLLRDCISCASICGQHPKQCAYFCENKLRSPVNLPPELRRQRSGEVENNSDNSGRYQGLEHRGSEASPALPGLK
Description: as §1, §2

BCMA fusion protein [10] = target: T8, BCMA fusion protein; assay: receptor binding inhibition assay: unlabelled APRIL titrated against bio-APRIL (5 ng/ml, the competitor) for binding to plate-coated BCMA fusion protein; streptavidin Delfia, fluorescence counts
Description: as §1

TACI fusion protein [11] = target: T9, TACI fusion protein; assay: receptor binding inhibition assay: unlabelled APRIL titrated against bio-APRIL (50 ng/ml, the competitor) for binding to plate-coated TACI fusion protein; streptavidin Delfia, fluorescence counts
Description: as §1, §2

T6 sequence (P01375 77-233 limits assumed): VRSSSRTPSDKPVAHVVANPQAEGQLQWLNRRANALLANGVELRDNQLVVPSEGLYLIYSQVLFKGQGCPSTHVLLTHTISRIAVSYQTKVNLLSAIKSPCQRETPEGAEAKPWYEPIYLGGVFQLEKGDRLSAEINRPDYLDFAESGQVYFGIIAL
T7 sequence (P02769 25-607 limits assumed): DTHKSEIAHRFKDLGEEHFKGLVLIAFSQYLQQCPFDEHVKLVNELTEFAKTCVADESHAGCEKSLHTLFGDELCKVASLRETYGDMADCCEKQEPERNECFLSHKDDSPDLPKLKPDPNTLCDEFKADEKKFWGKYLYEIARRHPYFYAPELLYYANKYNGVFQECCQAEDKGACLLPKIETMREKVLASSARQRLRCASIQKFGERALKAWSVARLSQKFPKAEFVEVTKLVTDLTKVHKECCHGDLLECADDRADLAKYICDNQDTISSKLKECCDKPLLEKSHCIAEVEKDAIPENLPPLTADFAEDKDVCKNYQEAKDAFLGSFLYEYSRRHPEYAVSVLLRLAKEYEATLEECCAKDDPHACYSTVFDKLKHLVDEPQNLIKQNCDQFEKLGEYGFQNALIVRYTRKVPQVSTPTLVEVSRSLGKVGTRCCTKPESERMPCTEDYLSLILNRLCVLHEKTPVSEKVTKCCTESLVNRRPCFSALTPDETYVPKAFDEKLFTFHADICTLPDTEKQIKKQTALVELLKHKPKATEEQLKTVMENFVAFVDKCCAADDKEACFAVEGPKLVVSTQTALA

B2: A027H08 (scFv)
scFv: QVQLQQSGAEVKKPGSSVKVSCKASGGTFSSYAISWVRQTPGQGLEWMGGIIPIFGAANYAQKFQGRVTITADESTSTAHMELSSLRSEDTAVYYCARGISGGMDVWGKGTLVTVSSGGGSGGGGSGGGGSDIQMTQSPSTLSASIGDRVTITCRASEGIYHWLAWYQQKPGKAPKLLIYKASSLASGAPSRFSGSGSGTDFTLTISSLQPDDFATYYCQQYSNYPLTFGGGTKLEIKR
- binding result [3]: binds

Binder: B4
- IC50 (BCMA fusion protein [8]): 0.048 nM
- IC50 (TACI fusion protein [9]): 1.3 nM
- IC50 (BCMA fusion protein [10]): 0.043 nM
- IC50 (TACI fusion protein [11]): 0.165 nM

Further lines, with some results ahead:

- IC50 (biotinylated APRIL [1]): 19 nM
- IC50 (biotinylated APRIL [2]): 4 nM
B1: A024G01 (scFv)
scFv: EVQLVQSGAEVKKPGSSVKVSCKASGGTLSSDSITWVRQAPGQGLEWVGGLIPALGTANYAQKFQGRVTMTADRSTGTAYMELRSLKFDDTAVYYCARVSRTSYYDVLTDNNRYSYYMDVWGKGTLVTVSSGGGGSGGGGSGGGGSAHVILTQPPSVSVSPTQTATITCSGDHLGRKSLSWYQQKPGQSPVLVIYEDFKRPSGIPERFSASNSGYTATLTISGTQAMDEADYYCQAWDNRAVVFGGGTKLTVLG

- IC50 (biotinylated APRIL [4]): 4.3 nM
- IC50 (biotinylated APRIL [5]): 10 nM
- IC50 (biotinylated APRIL [6]): 10 nM
- IC50 (biotinylated APRIL [7]): 7 nM
B3: A019C11 (scFv)
scFv: EVQLVQSGAEVKKPGASVKVSCKTSGYTFTDNYMHWVRQAPGQGLEWMGWISPNSSTTLYAQKFRGRVTLTRDTSVSTAYMELSGLDSDDTALYFCARGGRLAGSTVFTPAFEYWGRGTMVTVSSGGGGSGGGGSGGGGSAQAVLTQPSSVSEAPRQRVTISCSGSSSNIGNNAVKWYQQLPGKAPKLLIYYDDLLPSGVSDRFSGSKSGTSASLAISGLQSEDEADYYCAAWDDSLNGYVFGTGTKVTVLG
- binding result (BCMA): no binding (tested: antigen coated at 1 µg/ml)
- binding result (TACI): no binding (tested: antigen coated at 1 µg/ml)
- binding result (BLyS): no binding (tested: antigen coated at 1 µg/ml)
- binding result (LIGHT): no binding (tested: antigen coated at 1 µg/ml)
- binding result (TNF-α): no binding (tested: antigen coated at 1 µg/ml)
- binding result (BSA): no binding (tested: antigen coated at 1 µg/ml)
